In test [1] the target is T1, Recombinant hIL-36R protein (Acrobio, Cat #IL2-H52H6) (human, UniProt Q9HB29 20-335).
T1 construct: Bought soluble protein; also called recombinant human IL-36R protein
T1 sequence: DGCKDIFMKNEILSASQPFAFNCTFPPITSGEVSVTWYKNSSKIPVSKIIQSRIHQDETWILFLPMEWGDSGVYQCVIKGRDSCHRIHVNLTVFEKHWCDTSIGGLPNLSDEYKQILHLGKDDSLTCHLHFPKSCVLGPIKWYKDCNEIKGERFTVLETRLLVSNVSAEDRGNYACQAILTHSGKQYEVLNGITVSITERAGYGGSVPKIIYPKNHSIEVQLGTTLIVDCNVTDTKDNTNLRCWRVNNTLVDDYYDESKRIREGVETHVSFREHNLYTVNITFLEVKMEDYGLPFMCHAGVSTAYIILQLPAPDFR
The test is described as follows: BLI (Gator).

The target of test [2] is T1, Recombinant hIL-36R protein (Acrobio, …). Nature of the test: BLI (Gator), antibody on Protein A sensor, hIL-36R analyte.
For test [3] the target is unchanged. The test is described as follows: BLI (Gator), antibody on Protein A sensor, hIL-36R analyte; stands under the head kon(1/s), read as koff from KD = koff/kon.
Test [4] shares this target. Nature of the test: BLI (Gator), antibody on Protein A sensor, hIL-36R analyte; stands under the head koff(1/Ms), read as kon from KD = koff/kon.

Broadly, the Kd is the constant that tells how readily two partners part at equilibrium. The koff is the first-order rate constant of dissociation. As a reminder, the kon is the second-order rate constant of association.

B1: 5F7-2c4 (antibody, human IgG4 S228P, kappa, V domains shown)
VH: EVQLVESGGGLVKPGGSLRLSCAASGFAFTDYYLRWVRQAPGKGLEWVALIRNKAAGYTIYYSAPVKGRFTISRDDSKSTLYLQMNSLKTEDTAVYYCVRDMTIYDGYYVDYALDYWGQGTLVTVSS
VL: DIVMTQSPSSVSASVGDRVTITCRASRNINIWLSWYQQKPGKAPKLFIYKASNLHTGVPSRFSGSGSGTDFTLTISSLQPEDFATYYCLQSQSYPLTFGQGTKLEIKR
As for B1, in test [1], the dissociation constant Kd was determined as 2060 nM, the off-rate (koff) is 0.000418 s⁻¹ and the kon worked out at 203 M⁻¹ s⁻¹.

B2: 5F7-2h1 (antibody, human IgG4 S228P, kappa, V domains shown)
VH: EVQLVESGGGLVKPGGSLRLSCAASGYAFTDYYMNWVRQAPGKGLEWVALIRNKAAGYTIYYSAPVKGRFTISRDDSKSTLYLQMNSLKTEDTAVYYCVRDMTIYDGYYVDYALDYWGQGTLVTVSS
VL: DIVMTQSPSSVSASVGDRVTITCRASRNINIWLSWYQQKPGKAPKLFIYKASNLHTGVPSRFSGSGSGTDFTLTISSLQPEDFATYYCLQSQSYPLTFGQGTKLEIKR
As for B2, in test [1], the Kd is below 0.1 nM and the kon was 41000 M⁻¹ s⁻¹.

B3: 5F7-2d3 (antibody, human IgG4 S228P, kappa, V domains shown)
VH: EVQLVESGGGLVKPGGSLRLSCAASGFNFTDYYMNWVRQAPGKGLEWVALIRNKAAGYTIYYSAPVKGRFTISRDDSKSTLYLQMNSLKTEDTAVYYCVRDMTIYDGYYVDYALDYWGQGTLVTVSS
VL: DIVMTQSPSSVSASVGDRVTITCRASRNINIWLSWYQQKPGKAPKLFIYKASNLHTGVPSRFSGSGSGTDFTLTISSLQPEDFATYYCLQSQSYPLTFGQGTKLEIKR
For the molecule B3, in test [1], the Kd amounted to 2.46 nM, the koff came to 8.83e-05 s⁻¹ and the association rate constant (kon) stood at 35900 M⁻¹ s⁻¹.

B4: 5F7-2g10 (antibody, human IgG4 S228P, kappa, V domains shown)
VH: EVQLVESGGGLVKPGGSLRLSCAASGFAFTDYYLSWVRQAPGKGLEWVALIRNKAAGYTIYYSAPVKGRFTISRDDSKSTLYLQMNSLKTEDTAVYYCVRDMTIYDGYYVDYALDYWGQGTLVTVSS
VL: DIVMTQSPSSVSASVGDRVTITCRASRNINIWLSWYQQKPGKAPKLFIYKASNLHTGVPSRFSGSGSGTDFTLTISSLQPEDFATYYCLQSQSYPLTFGQGTKLEIKR
As for B4, in test [1], the Kd was 0.638 nM, the koff came to 1.84e-05 s⁻¹ and the kon is 28900 M⁻¹ s⁻¹.

B5: 1J3 (antibody, V domains shown)
VH: QVQLEQSGGDLVKPGGSLKLSCAASGFTFSSYGMSWVRQTPDKRLEWVATISSYGSYTSYPDTVKGRFTISRDNAKNTLYLQMSSLKSEDTAMYYCARPDYYVSTGFDYWGQGTTLTVSS
VL: DIVITQSTATLSVTPGDRVSLSCRASQSISDYLHWYQQKSHESPRLLIKYASQSISGIPSRFSGSGSGSDFTLSINSVEPEDVGVYYCQNGHSFPFTFGSGTKLEIK
notes: Mouse variable regions, recombinantly expressed
Regarding B5, the equilibrium dissociation constant (Kd) in test [2] worked out at 0.597 nM. In test [3], the dissociation rate constant (koff) was 4.37e-05 s⁻¹. Moreover, the on-rate constant (kon) in test [4] is 73200 M⁻¹ s⁻¹.

B6: 9C12 (antibody, V domains shown)
VH: EVQLQQSGPELVKPGASVKMSCKASGYTFTDYHMNWVKRSPGKSLEWIGRINPDYGDARYDQKFKGKATLTVDKSLSTAYMQLNRLTYEDSAVYYCARDGYYVFDYWGQGSTLTVSS
VL: DIVMTQAAFSNPVSLGTSASISCRSSKSLLHSDGITYLSWYLQRPGQSPQLLIYRMSNLVSGVPDRFSGSGSGTDFTLRISRVEAEDVGVYYCAQTLEFPLTFGAGTKLELK
notes: as for B5
Regarding B6, the Kd in test [2] stood at 10 nM. For the same molecule, the dissociation rate constant (koff) in test [3] came out at 0.000795 s⁻¹. Further, the kon in test [4] came out at 79400 M⁻¹ s⁻¹.

B7: 9H11 (antibody, V domains shown)
VH: QVQLQQSGPELVKPGASVKISCKASGYAFSHSWMNWVKQRPGKGLEWIGWIHLGDGDTYYNGKFKGKATLTADKSSSTAYMQLSSLTSEDSAVYFCARSDGNYVPYAMDYWGQGTSVTVSS
VL: DIVITQTTSSLSASLGDRVTISCRASQDISNYLSWYQQKPDGTVKLLIYYTSRLHSGVPSRFSGSGSGTDYSLTISSLEQEDIATYFCQQDSEHPWTFGGGTELDVR
notes: as for B5
In the case of B7, the dissociation constant (Kd) in test [2] was 0.00631 nM. Further, the koff in test [3] is 5.79e-07 s⁻¹. The kon in test [4] stood at 91700 M⁻¹ s⁻¹.

B8: 10F6 (antibody, V domains shown)
VH: QVQLQQSGAELVKPGASVRLSCKASGYTFTEFTIHWVKQRSGQGLEWIGWFYPGSDFIKYNEKFKDKATLTADKSSNTVYMELLRLTSEDSAVYFCARHEDRLSDYSYEWYFDVWGAGTAVTVSS
VL: DIQMTQSPASLSASVGETVTITCRASENIDSYLAWYQQKQGKSPQLLVYGATLLADGVPSRFSGSGSGTQYSLKINSLQSEDVAEYFCQHYYSIPLTFGAGTKLELK
notes: as for B5
Consider B8, for which, in test [2], the equilibrium dissociation constant (Kd) was 0.901 nM. The off-rate (koff) in test [3] was found to be 0.000137 s⁻¹. Also, the association rate constant (kon) in test [4] was determined as 152000 M⁻¹ s⁻¹.

B9: 1C11 (antibody, V domains shown)
VH: EVQVQQSGTELVKPGASVKLSCKASGYTFTNYWLHWVKQRPGQGLEWIGNINPSNGGTNYNEKFKTKATLTVDKSSSTAYMQLSSLTSEDSAVYYCARYSTGFAYWGQGTLVTVSA
VL: DIVLTQTTASLAVSLGQRATISCRASESVDTYGASFMHWYQQKPGQPPKLLIYRASNLESGIPARFSGSGSRTDFTLTVNPVEADDVATYYCQQSNEDPRTFGGGTKLEIK
notes: as for B5
Take B9: the Kd in test [2] came out at 13.7 nM. Besides, the koff in test [3] amounted to 0.000872 s⁻¹. The on-rate constant (kon) in test [4] was 63800 M⁻¹ s⁻¹.

B10: 1A21 (antibody, V domains shown)
VH: EVQLQQSGPELVKPGDSVKISCKASGYSFTGYFMNWVMQSHGKSLEWIGRINPYNGDTFYNQKFKGKATLTVDKSSSTAHMELRSLTSEDSAVYYCAGLGHWYFDVWGTGTTVTVSS
VL: DIVMTQSTLSLPVSLGDQASISCRSSQSIVHSNGNTYLEWYLQKPGQSPKLLIYKVSNRFSGVPDRFSGSGSGTDFTLKISRVEAEDLGVYYCFQGSHVPWTFGGGTKLEIK
notes: as for B5
B10: in test [2], the Kd amounted to 0.536 nM. In test [3], the koff worked out at 4.01e-05 s⁻¹. In addition, in test [4], the kon was 74900 M⁻¹ s⁻¹.

B11: 10D12 (antibody, V domains shown)
VH: QVQLQQPGTELVKPGASVKLSCKASGYTFTRYWMHWVRQRPGQGLEWIGNINPNIGRANYNEKFKNKATLTVDKSSSTAYMQLSSLTSEDSAVYYCARPGETTDYWGQGTTLTVSS
VL: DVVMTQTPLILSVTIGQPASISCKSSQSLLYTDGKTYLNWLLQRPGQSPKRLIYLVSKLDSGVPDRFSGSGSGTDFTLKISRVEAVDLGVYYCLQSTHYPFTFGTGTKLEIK
notes: as for B5
Turning to B11, the dissociation constant Kd in test [2] was 4.03 nM. Moreover, in test [3], the koff turned out to be 0.000321 s⁻¹. For the same molecule, in test [4], the kon was determined as 79800 M⁻¹ s⁻¹.

The record behind these values is patent US20250002593A1 (INMAGENE PTE, published 2025).
